Biological target: the molecule itself
Assay: crystal structure; sitting drop vapour diffusion at 293 K; truncated apo-TDO2 with 2 mM AMT, alone or after incubation with 1 mM inhibitor (Rac-1, Cpd-1, Cpd-4)

B1: truncated human apo-TDO2 (aa 39-389) with a C-terminal hexa-histidine tag (enzyme, UniProt P48775 39-389, looked up)
chain: GLIYGNYLHLEKVLNAQELQSETKGNKIHDEHLFIITHQAYELWFKQILWELDSVREIFQNGHVRDERNMLKVVSRMHRVSVILKLLVQQFSILETMTALDFNDFREYLSPASGFQSLQFRLLENKIGVLQNMRVPYNRRHYRDNFKGEENELLLKSEQEKTLLELVEAWLERTPGLEPHGFNFWGKLEKNITRGLEEEFIRIQAKEESEEKEEQVAEFQKQKEVLLSLFDEKRHEHLLSKGERRLSYRALQGALMIYFYREEPRFQVPFQLLTSLMDIDSLMTKWRYNHVCMVHRMLGSKAGTGGSSGYHYLRSTVSDRYKVFVDLFNLSTYLIPRHWIPKMNPTIHKFL
notes: human tryptophan-2,3-dioxygenase (TDO2), P48775.1, amino acids 39-389, heme-free (apo) form; S1 Text is said to show additional amino acids introduced as a linker or during subcloning; calculated molecular mass 42940.24 Da; also called tryptophan-2,3-dioxygenase; TDO2 aa39-389-His6; source: E. coli RP523 (hemB mutant, unable to synthesize heme), anaerobic expression, purified (HisTrap, HiTrap Q, …)
stoichiometry N: 4
